# Experimental data from IntAct's records for PubMed 15086532.
# Molecular target: gasp1_human GPRASP1 (UniProt Q5JY77)
# Sequence (Q5JY77 whole entry): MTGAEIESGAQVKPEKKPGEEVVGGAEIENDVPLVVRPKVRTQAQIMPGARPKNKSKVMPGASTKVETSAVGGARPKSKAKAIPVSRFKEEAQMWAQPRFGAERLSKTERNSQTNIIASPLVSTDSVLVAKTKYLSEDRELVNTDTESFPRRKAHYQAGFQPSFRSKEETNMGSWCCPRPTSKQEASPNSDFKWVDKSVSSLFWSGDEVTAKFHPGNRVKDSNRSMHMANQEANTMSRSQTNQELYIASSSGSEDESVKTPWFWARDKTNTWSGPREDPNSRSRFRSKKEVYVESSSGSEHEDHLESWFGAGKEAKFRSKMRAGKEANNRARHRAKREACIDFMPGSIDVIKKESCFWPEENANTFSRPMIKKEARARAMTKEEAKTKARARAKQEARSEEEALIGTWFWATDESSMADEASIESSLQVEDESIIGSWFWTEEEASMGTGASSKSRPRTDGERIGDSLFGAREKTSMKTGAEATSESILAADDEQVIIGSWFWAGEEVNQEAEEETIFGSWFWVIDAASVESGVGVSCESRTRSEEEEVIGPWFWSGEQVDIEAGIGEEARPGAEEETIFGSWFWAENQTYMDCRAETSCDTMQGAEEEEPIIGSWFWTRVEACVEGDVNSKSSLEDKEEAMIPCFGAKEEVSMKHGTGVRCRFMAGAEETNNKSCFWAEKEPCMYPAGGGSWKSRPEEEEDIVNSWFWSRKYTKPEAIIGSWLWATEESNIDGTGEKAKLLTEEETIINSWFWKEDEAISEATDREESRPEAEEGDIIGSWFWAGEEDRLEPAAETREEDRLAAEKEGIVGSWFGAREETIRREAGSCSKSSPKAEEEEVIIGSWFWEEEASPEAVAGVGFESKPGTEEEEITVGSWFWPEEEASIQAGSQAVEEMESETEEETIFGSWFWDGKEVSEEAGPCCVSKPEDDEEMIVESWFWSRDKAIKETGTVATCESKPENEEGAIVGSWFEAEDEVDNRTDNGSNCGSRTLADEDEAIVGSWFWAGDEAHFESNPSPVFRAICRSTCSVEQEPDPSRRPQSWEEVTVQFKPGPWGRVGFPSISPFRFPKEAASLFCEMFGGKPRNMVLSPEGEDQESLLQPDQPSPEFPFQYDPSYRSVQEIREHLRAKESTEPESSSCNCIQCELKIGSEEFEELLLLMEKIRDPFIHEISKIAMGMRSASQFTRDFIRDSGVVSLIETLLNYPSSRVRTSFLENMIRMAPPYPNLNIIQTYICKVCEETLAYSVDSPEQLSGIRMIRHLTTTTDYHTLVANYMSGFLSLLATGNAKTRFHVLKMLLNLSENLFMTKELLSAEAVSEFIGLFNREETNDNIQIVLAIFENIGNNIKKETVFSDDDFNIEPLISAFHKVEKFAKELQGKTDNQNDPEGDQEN
# Sequence of Beta-1 adrenergic receptor (Homo sapiens), P08588 F383A;R384A (P08588 whole entry F383A/R384A): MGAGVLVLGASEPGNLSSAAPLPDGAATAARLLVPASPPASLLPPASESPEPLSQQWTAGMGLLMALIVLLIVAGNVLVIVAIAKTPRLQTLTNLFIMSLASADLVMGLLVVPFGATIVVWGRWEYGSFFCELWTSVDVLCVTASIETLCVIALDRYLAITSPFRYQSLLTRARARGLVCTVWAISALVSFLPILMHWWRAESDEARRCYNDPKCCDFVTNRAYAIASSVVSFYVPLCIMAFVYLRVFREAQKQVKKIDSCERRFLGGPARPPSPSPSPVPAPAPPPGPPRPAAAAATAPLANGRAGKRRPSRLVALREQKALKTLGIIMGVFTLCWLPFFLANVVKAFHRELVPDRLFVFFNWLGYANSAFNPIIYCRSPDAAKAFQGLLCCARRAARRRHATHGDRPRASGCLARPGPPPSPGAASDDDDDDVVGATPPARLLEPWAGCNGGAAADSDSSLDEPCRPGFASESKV
substance,measurement,value
"Beta-1 adrenergic receptor (Homo sapiens), P08588 F383A;R384A",effect of a mutation on the interaction,decreasing interaction
